In PMC10625600, “A TRIM21-based bioPROTAC highlights the therapeutic benefit of HuR degradation”:

Legend:
HuR full-length [1] = target: T1, HuR full-length (UniProt Q15717 1-326); experiment: competition fluorescence polarisation; 8 nM HuR, 8 nM Msi1-FITC probe N1 displaced; FP: 10 mM HEPES pH 7.4, 150 mM NaCl, 3 mM EDTA, 0.05% Tween-20; competition 5 min at room temperature; SPR: Biacore 8K, streptavidin chip, buffer not given in the material; conditions: protein: recombinant; tags: Avi-tag, TEV-cleavable His-tag; single-stranded
T1 sequence (Q15717 whole entry): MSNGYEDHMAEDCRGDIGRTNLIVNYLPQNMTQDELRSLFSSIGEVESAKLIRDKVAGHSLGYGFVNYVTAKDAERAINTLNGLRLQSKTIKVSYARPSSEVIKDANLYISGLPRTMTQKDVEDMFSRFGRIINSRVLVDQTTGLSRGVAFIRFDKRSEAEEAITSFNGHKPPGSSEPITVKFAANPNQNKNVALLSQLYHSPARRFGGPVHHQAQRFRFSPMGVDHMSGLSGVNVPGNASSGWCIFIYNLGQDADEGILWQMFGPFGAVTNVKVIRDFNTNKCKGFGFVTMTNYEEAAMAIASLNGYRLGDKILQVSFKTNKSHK

HuR full-length [2] = target: T1, HuR full-length; experiment: fluorescence polarisation; 10 nM probe, 0-2000 nM HuR; FP: 10 mM HEPES pH 7.4, 150 mM NaCl, 3 mM EDTA, 0.05% Tween-20; competition 5 min at room temperature; SPR: Biacore 8K, streptavidin chip, buffer not given in the material; conditions: protein: recombinant; tags: Avi-tag, TEV-cleavable His-tag; label: 3' fluorescein (3FluorT; printed after the 3' G, may add a labelled T); single-stranded

Binder | Ki (HuR full-length [1]) [nM] | Kd (HuR full-length [2]) [nM]
GCUUUUAUUUAUUUUG (ssRNA) [unlabelled Msi1 RNA] | 4 | –
GCUUUUAUUUAUUUUG (ssRNA) [Msi1-FITC RNA probe] | – | 3.7
